# Experimental data published in patent US20200223912A1 (Hoffmann-La Roche, published 2020).
# Target: T1, full length human Tau (not phosphorylated) (human, UniProt P10636 1-758)
# T1 construct: Human Tau isoform F, 441 residues; also called full length tau; Tau protein
# Assay: Western blot on recombinant Tau, all antibodies 1 ug/ml
# T1 sequence (P10636 other isoform, or with tags, fused parts or gaps limits assumed): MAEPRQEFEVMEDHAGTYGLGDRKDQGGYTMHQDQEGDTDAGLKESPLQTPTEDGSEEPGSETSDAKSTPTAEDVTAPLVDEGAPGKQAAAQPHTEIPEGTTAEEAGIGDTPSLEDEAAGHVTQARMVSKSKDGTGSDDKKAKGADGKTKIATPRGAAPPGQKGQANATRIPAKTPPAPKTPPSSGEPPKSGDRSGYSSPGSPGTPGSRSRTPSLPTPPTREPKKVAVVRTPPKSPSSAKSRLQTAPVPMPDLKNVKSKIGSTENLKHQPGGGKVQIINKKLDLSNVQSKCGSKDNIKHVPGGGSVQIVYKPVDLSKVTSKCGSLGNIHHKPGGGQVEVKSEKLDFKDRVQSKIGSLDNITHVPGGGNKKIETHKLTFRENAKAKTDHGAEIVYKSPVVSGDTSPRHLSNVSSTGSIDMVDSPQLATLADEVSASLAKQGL
row,Binder,binding result
1,"VH32/VL21 (antibody, V domains shown) VH: EVQVLESGGGLVQPGGSLRLSCAVSGFSLSSNAINWVRQAPGKGLEWVGYIAVSGNTYYASWAKGRFTISRDNSKNTVYLQMNSLRAEDTAVYYCGKSNIWGQGTLVTVSS VL: AQVMTQSPSSLSASVGDRVTITCRSSQSVRTNKLAWFQQKPGQPPKRLIYSASTLDFGVPSRFSGSGSGTEFTLTISSLQPEDFATYYCLGYFDSSADIVAFGGGTKVEIK",no binding (tested: 1 ug/ml)
2,"VH32/VL22 (antibody, V domains shown) VH: EVQVLESGGGLVQPGGSLRLSCAVSGFSLSSNAINWVRQAPGKGLEWVGYIAVSGNTYYASWAKGRFTISRDNSKNTVYLQMNSLRAEDTAVYYCGKSNIWGQGTLVTVSS VL: AQVMTQSPSSLSASVGDRVTITCRSSQSVRTNRLAWFQQKPGQPPKRLIYSASTLDYGVPSRFSGSGSGTEFTLTISSLQPEDFATYYCLGYFDSSADIVAFGGGTKVEIK",no binding (tested: 1 ug/ml)
